Assay results published in patent US20250003951A1 (OXFORD UNIVERSITY INNOVATION, published 2025).
Where a chain is given by its changes, count along the chain named. Values belong to the binder of their own block, whether it stands above or below them.

Columns and labels:
Test in all cases: cell-based or functional assay
OX289-067 = target: T1, OX289-067 (human)
T1 peptide: VATFPVYTMVAIPIVCKD

OX289-221 = target: T2, OX289-221 (human)
T2 peptide: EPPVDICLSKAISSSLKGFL

OX289-040 = target: T3, OX289-040 (human)
T3 peptide: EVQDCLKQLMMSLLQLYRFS

OX628-308 = target: T4, OX628-308 (human)
T4 peptide: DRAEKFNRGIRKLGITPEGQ

OX628-309 = target: T5, OX628-309 (human)
T5 peptide: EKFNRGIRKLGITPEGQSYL

OX289-075 = target: T6, OX289-075 (human)
T6 peptide: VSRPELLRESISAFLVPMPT

OX289-205 = target: T7, OX289-205 (human)
T7 peptide: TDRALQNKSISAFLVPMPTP

OX885-559 = target: T8, OX885-559 (human)
T8 peptide: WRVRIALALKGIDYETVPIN

OX885-560 = target: T9, OX885-560 (human)
T9 peptide: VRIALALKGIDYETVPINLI

OX289-009 = target: T10, OX289-009 (human)
T10 peptide: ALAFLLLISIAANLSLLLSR

OX802-321 = target: T11, OX802-321 (human)
T11 peptide: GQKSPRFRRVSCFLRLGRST

OX802-322 = target: T12, OX802-322 (human)
T12 peptide: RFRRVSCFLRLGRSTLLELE

OX289-284 = target: T13, OX289-284 (human)
T13 peptide: GETGMFSLSTIRGHQYATY

Clone size (percent repertoire), IFNγ+ sorted T cells after peptide stimulation (OX289-067): 81.1 % of repertoire
B1: OX289 Peptide 67 clone 1 TCR (TCR)
TCR alpha 1: QLLEQSPQFLSIQEGENLTVYCNSSSVFSSLQWYRQEPGEGPVLLVTVVTGGEVKKLKRLTFQFGDARKDSSLHITAAQPGDTGLYLCAGLDDKIIFGKGTRLHILPNIQNPDPAVYQLRD
TCR alpha 2: GIQVEQSPPDLILQEGANSTLRCNFSDSVNNLQWFHQNPWGQLINLFYIPSGTKQNGRLSATTVATERYSLLYISSSQTTDSGVYFCAVAGSNYQLIWGAGTKLIIKPDIQNPDPAVYQLRD
TCR beta: EAGVAQSPRYKIIEKRQSVAFWCNPISGHATLYWYQQILGQGPKLLIQFQNNGVVDDSQLPKDRFSAERLKGVDSTLKIQPAKLEDSAVYLCASSDPISGRGDEQFFGPGTRLTVLEDLKNVFPPEVAVFEPS

Clone size (percent repertoire), IFNγ+ sorted T cells after peptide stimulation (OX289-221): 65.4 % of repertoire
B2: OX289 Peptide 221 clone 1 TCR (TCR, V domains shown)
V domain 1: SLAKTTQPISMDSYEGQEVNITCSHNNIATNDYITWYQQFPSQGPRFIIQGYKTKVTNEVASLFIPADRKSSTLSLPRVSLSDTAVYYCLVVPVYNQGGKLIFGQGTELSVKP
V domain 2: KAGVTQTPRYLIKTRGQQVTLSCSPISGHRSVSWYQQTPGQGLQFLFEYFSETQRNKGNFPGRFSGRQFSNSRSEMNVSTLELGDSALYLCASSSGTSGMGETQYFGPGTRLLVLE

Clone size (percent repertoire), IFNγ+ sorted T cells after peptide stimulation (OX289-040): 85.2 % of repertoire
B3: OX289 Peptide 40 clone 1 TCR (TCR, V domains shown)
V domain 1: NSVTQMEGPVTLSEEAFLTINCTYTATGYPSLFWYVQYPGEGLQLLLKATKADDKGSNKGFEATYRKETTSFHLEKGSVQVSDSAVYFCALIPTGGGNKLTFGTGTQLKVEL
V domain 2: AVVSQHPSWVICKSGTSVKIECRSLDFQATTMFWYRQFPKQSLMLMATSNEGSKATYEQGVEKDKFLINHASLTLSTLTVTSAHPEDSSFYICSARLAHSGTNTGELFFGEGSRLTVLE

Clone size (percent repertoire), IFNγ+ sorted T cells after peptide stimulation (OX289-221): 10.9 % of repertoire
B6: OX289 Peptide 221 clone 2 TCR (TCR, V domains shown)
V domain 1: GDAKTTQPNSMESNEEEPVHLPCNHSTISGTDYIHWYRQLPSQGPEYVIHGLTSNVNNRMASLAIAEDRKSSTLILHRATLRDAAVYYCILRDVGGSEKLVFGKGTKLTVNP
V domain 2: AVVSQHPSWVICKSGTSVKIECRSLDFQATTMFWYRQFPKQSLMLMATSNEGSKATYEQGVEKDKFLINHASLTLSTLTVTSAHPEDSSFYICSAKGLENQPQHFGDGTRLSILE

Clone size (percent repertoire), IFNγ+ sorted T cells after peptide stimulation (OX885-559): 96.5 % of repertoire
Clone size (percent repertoire), IFNγ+ sorted T cells after peptide stimulation (OX885-560): 96.5 % of repertoire
B7: OX885 Peptides 559/560 clone 1 TCR (TCR, V domains shown)
V domain 1: GIQVEQSPPDLILQEGANSTLRCNFSDSVNNLQWFHQNPWGQLINLFYIPSGTKQNGRLSATTVATERYSLLYISSSQTTDSGVYFCAARRVDNNNDMRFGAGTRLTVKP
V domain 2: DARVTQTPRHKVTEMGQEVTMRCQPILGHNTVFWYRQTMMQGLELLAYFRNRAPLDDSGMPKDRFSAEMPDATLATLKIQPSEPRDSAVYFCASGLAQPQHFGDGTRLSILE

Clone size (percent repertoire), IFNγ+ sorted T cells after peptide stimulation (OX289-284): 96 % of repertoire
B12: OX289 Peptide 284 clone 1 TCR (TCR)
TCR alpha: RKEVEQDPGPFNVPEGATVAFNCTYSNSASQSFFWYRQDCRKEPKLLMSVYSSGNEDGRFTAQLNRASQYISLLIRDSKLSDSATYLCVVNKATSGTYKYIFGTGTRLKVLANIQNPDPAVYQLRD
TCR beta 1: AVVSQHPSWVICKSGTSVKIECRSLDFQATTMFWYRQFPKQSLMLMATSNEGSKATYEQGVEKDKFLINHASLTLSTLTVTSAHPEDSSFYICSARDREAAGYGYTFGSGTRLTVVEDLNKVFPPEVAVFEPS
TCR beta 2: AVVSQHPSWVICKSGTSVKIECRSLDFQATTMFWYRQFPKQSLMLMATSNEGSKATYEQGVEKDKFLINHASLTLSTLTVTSAHPEDSSFYICSARLAHSGTNTGELFFGEGSRLTVLEDLKNVFPPEVAVFEPS

The remaining lines, values behind:

B4: OX885 Peptides OX628-308/309 clone 1 TCR (TCR, V domains shown)
V domain 1: KTTQPPSMDCAEGRAANLPCNHSTISGNEYVYWYRQIHSQGPQYIIHGLKNNETNEMASLIITEDRKSSTLILPHATLRDTAVYYCIVRVAVTNAGKSTFGDGTTLTVKP
V domain 2: EAQVTQNPRYLITVTGKKLTVTCSQNMNHEYMSWYRQDPGLGLRQIYYSMNVEVTDKGDVPEGYKVSRKEKRNFPLILESPSPNQTSLYFCASRYYSADTQYFGPGTRLTVLE
Clone size (percent repertoire), IFNγ+ sorted T cells after peptide stimulation (OX628-308): 76.1 % of repertoire
Clone size (percent repertoire), IFNγ+ sorted T cells after peptide stimulation (OX628-309): 76.1 % of repertoire

B5: OX289 Peptides 75/205 clone 1 TCR (TCR)
TCR alpha 1: NSVTQMEGPVTLSEEAFLTINCTYTATGYPSLFWYVQYPGEGLQLLLKATKADDKGSNKGFEATYRKETTSFHLEKGSVQVSDSAVYFCALRHKAAGNKLTFGGGTRVLVKPNIQNPDPAVYQLRD
TCR alpha 2: QQKEKSDQQQVKQSPQSLIVQKGGISIINCAYENTAFDYFPWYQQFPGKGPALLIAIRPDVSEKKEGRFTISFNKSAKQFSLHIMDSQPGDSATYFCAALFDGGSQGNLIFGKGTKLSVKPNIQNPDPAVYQLRD
TCR beta: AVVSQHPSWVICKSGTSVKIECRSLDFQATTMFWYRQFPKQSLMLMATSNEGSKATYEQGVEKDKFLINHASLTLSTLTVTSAHPEDSSFYICSASGPEKLFFGSGTQLSVLEDLNKVFPPEVAVFEPS
Clone size (percent repertoire), IFNγ+ sorted T cells after peptide stimulation (OX289-075): 42.4 % of repertoire
Clone size (percent repertoire), IFNγ+ sorted T cells after peptide stimulation (OX289-205): 42.4 % of repertoire

B8: OX885 Peptides OX628-308/309 clone 2 TCR (TCR, V domains shown)
V domain 1: AQSVTQLDSQVPVFEEAPVELRCNYSSSVSVYLFWYVQYPNQGLQLLLKYLSGSTLVKGINGFEAEFNKSQTSFHLRKPSVHISDTAEYFCAVSGVLTGGGNKLTFGTGTQLKVEL
V domain 2: DAGITQSPRYKITETGRQVTLMCHQTWSHSYMFWYRQDLGHGLRLIYYSAAADITDKGEVPDGYVVSRSKTENFPLTLESATRSQTSVYFCASSEGTVSNQPQHFGDGTRLSILE
Clone size (percent repertoire), IFNγ+ sorted T cells after peptide stimulation (OX628-308): 16.2 % of repertoire
Clone size (percent repertoire), IFNγ+ sorted T cells after peptide stimulation (OX628-309): 16.2 % of repertoire

B9: OX289 Peptides 75/205 clone 3 TCR (TCR, V domains shown)
V domain 1: NSVTQMEGPVTLSEEAFLTINCTYTATGYPSLFWYVQYPGEGLQLLLKATKADDKGSNKGFEATYRKETTSFHLEKGSVQVSDSAVYFCALRGRNQGGKLIFGQGTELSVKP
V domain 2: GAVVSQHPSRVICKSGTSVKIECRSLDFQATTMFWYRQFPKQSLMLMATSNEGSKATYEQGVEKDKFLINHASLTLSTLTVTSAHPEDSSFYICSARLSSGGGYEQFFGPGTRLTVLE
Clone size (percent repertoire), IFNγ+ sorted T cells after peptide stimulation (OX289-075): 13.9 % of repertoire
Clone size (percent repertoire), IFNγ+ sorted T cells after peptide stimulation (OX289-205): 13.9 % of repertoire

B10: OX289 Peptide 9 clone 1 TCR (TCR, V domains shown)
V domain 1: RKEVEQDPGPFNVPEGATVAFNCTYSNSASQSFFWYRQDCRKEPKLLMSVYSSGNEDGRFTAQLNRASQYISLLIRDSKLSDSATYLCVVDFYTSGTYKYIFGTGTRLKVLA
V domain 2: B9 V domain 2 with L98D, S99R, S100E, G101A, G102A, E105G, Q106Y, F107T, P110S, L117V
Clone size (percent repertoire), IFNγ+ sorted T cells after peptide stimulation (OX289-009): 91.1 % of repertoire

B11: OX802 Peptides 321/322 clone 1 TCR (TCR)
TCR alpha 1: AGQSLEQPSEVTAVEGAIVQINCTYQTSGFYGLSWYQQHDGGAPTFLSYNALDGLEETGRFSSFLSRSDSYGYLLLQELQMKDSASYFCAVLKKGYALNFGKGTSLLVTPHIQNPDPAVYQLRD
TCR alpha 2: KDQVFQPSTVASSEGAVVEIFCNHSVSNAYNFFWYLHFPGCAPRLLVKGSKPSQQGRYNMTYERFSSSLLILQVREADAAVYYCAVAGGYNKLIFGAGTRLAVHPYIQNPDPAVYQLRD
TCR beta: EAGVVQSPRYKIIEKKQPVAFWCNPISGHNTLYWYLQNLGQGPELLIRYENEEAVDDSQLPKDRFSAERLKGVDSTLKIQPAELGDSAVYLCASSLEAGDSYEQYFGPGTRLTVTEDLKNVFPPEVAVFEPS
Clone size (percent repertoire), IFNγ+ sorted T cells after peptide stimulation (OX802-321): 47.4 % of repertoire
Clone size (percent repertoire), IFNγ+ sorted T cells after peptide stimulation (OX802-322): 47.4 % of repertoire

B13: OX802 Peptides 321/322 clone 2 TCR (TCR, V domains shown)
V domain 1: KDQVFQPSTVASSEGAVVEIFCNHSVSNAYNFFWYLHFPGCAPRLLVKGSKPSQQGRYNMTYERFSSSLLILQVREADAAVYYCAVTGGYNKLIFGAGTRLAVHP
V domain 2: EAGVVQSPRYKIIEKKQPVAFWCNPISGHNTLYWYLQNLGQGPELLIRYENEEAVDDSQLPKDRFSAERLKGVDSTLKIQPAELGDSAVYLCASSLEAGDSYEQYFGPGTRLTVTE
Clone size (percent repertoire), IFNγ+ sorted T cells after peptide stimulation (OX802-321): 20 % of repertoire
Clone size (percent repertoire), IFNγ+ sorted T cells after peptide stimulation (OX802-322): 20 % of repertoire
